In paper PMC5131575 (Biomaterials, 2016):

Molecular target: Clathrin triskelions (bovine (purified from bovine brain), UniProt P49951 1-1675)
Assay: SPR

Sequence of Clathrin triskelions (P49951 whole entry): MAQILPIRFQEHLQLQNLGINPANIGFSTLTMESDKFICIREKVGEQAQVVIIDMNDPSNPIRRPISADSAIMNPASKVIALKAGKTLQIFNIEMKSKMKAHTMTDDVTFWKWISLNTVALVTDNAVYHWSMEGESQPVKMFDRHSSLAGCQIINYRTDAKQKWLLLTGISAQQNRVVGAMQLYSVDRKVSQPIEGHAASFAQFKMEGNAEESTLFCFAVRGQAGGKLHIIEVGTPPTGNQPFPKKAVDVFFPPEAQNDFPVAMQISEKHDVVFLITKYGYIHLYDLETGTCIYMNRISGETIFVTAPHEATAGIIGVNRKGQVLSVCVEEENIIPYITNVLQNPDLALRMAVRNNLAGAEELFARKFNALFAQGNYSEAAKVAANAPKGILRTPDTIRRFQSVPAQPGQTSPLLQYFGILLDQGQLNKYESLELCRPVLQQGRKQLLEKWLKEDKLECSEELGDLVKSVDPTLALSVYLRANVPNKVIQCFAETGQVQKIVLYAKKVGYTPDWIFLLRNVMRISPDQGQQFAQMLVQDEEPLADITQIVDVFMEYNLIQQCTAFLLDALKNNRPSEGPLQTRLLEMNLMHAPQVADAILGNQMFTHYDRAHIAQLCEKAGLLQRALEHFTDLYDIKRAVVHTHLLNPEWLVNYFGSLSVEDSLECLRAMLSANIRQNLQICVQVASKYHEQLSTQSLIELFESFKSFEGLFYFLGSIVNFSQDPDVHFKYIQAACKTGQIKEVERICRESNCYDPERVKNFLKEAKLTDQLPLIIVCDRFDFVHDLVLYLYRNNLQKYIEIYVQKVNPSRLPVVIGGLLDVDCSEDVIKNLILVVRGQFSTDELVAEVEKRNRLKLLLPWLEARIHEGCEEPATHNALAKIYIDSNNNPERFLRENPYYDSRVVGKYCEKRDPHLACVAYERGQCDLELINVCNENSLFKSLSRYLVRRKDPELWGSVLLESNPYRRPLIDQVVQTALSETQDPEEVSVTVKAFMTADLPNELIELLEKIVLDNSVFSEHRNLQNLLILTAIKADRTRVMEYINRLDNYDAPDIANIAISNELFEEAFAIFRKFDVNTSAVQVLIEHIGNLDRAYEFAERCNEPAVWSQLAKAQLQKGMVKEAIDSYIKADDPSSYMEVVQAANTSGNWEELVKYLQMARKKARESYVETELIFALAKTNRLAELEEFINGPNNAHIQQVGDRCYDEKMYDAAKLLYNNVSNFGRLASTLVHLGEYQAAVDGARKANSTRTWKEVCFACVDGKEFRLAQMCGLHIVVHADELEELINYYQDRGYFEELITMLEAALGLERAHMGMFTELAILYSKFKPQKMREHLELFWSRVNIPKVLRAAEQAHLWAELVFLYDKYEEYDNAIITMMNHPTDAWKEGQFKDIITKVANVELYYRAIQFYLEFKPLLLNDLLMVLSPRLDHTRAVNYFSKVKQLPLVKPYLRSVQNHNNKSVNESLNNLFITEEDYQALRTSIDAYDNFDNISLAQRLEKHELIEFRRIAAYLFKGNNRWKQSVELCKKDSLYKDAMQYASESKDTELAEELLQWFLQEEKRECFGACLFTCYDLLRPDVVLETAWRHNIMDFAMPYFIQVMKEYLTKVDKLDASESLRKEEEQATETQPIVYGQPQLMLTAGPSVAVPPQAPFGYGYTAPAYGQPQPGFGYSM

B1: GFP-Wbox (peptide)
chain: PWDLW
  Kd: 3.9 µM
